“And” between values parts separate entries of the source, which are not always exact repeats. Equal values may be shown once.
Key:
Bcl-xL = molecular target: T1, Bcl-xL (Homo sapiens, UniProt Q07817); experiment: LUMIER full-length protein interaction; format: binding; details: LUMIER results for Bcl-xL; for z-score 1.1: experiment 1, duplicate 1; for z-score 1.2: experiment 1, duplicate 2; for z-score 2.1: experiment 2, duplicate 1; for z-score 2.2: experiment 2, duplicate 2
T1 construct: myc-Bcl-xL SPOT array & FP; made in house
Protocol: (§1) The LUMIER assay was carried out as previously described with the following modifications. A stable cell line expressing receptor tagged on the N-terminus with Nanoluc luciferase was created (the prey). […] Each bait construct was transfected into the receptor-luciferase cells in a 96-well format and after 48 hours the cells were lysed and transferred to 384-well plates coated with anti-FLAG. After incubation and washing, luminescence was measured to quantify how much receptor-luciferase was captured by the bait protein. Anti-Flag ELISA signal was used to exclude bait proteins that were not expressed. The experiment was carried out two times, each in duplicate.

Mcl-1 = molecular target: T2, Mcl-1 (Homo sapiens, UniProt Q07820); experiment: LUMIER full-length protein interaction; format: binding; details: LUMIER results for Mcl-1, Z-score relative to Gaussian fit of the data; for z-score 1.2: experiment 1, duplicate 2; for z-score 2.1: experiment 2, duplicate 1; for z-score 2.2: experiment 2, duplicate 2
T2 construct: myc-Mcl-1 SPOT array & FP; made in house
Protocol: as §1

[1] = Z-score relative to Gaussian fit of the data
[2] = Z-score of the interaction relative to the Gaussian fit of the data

T1 sequence (Q07817 with tags, fused parts or gaps): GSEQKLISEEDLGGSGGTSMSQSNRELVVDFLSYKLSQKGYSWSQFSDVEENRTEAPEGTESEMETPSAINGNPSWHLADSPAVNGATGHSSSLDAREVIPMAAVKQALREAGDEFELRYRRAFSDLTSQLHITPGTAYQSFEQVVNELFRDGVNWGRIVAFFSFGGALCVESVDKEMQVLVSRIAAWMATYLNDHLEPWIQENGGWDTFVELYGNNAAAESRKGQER
T2 sequence (Q07820 with tags, fused parts or gaps): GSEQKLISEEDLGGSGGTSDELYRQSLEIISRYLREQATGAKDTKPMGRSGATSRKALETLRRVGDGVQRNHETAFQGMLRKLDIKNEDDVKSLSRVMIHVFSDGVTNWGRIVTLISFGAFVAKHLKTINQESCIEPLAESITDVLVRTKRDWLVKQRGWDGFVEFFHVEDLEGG

z-score 1.1 (Bcl-xL; [1]) | z-score 1.2 (Bcl-xL; [1]) | z-score 2.1 (Bcl-xL; [1]) | z-score 2.2 (Bcl-xL; [1]) | z-score 1.2 (Mcl-1) | z-score 2.1 (Mcl-1) | z-score 2.2 (Mcl-1) | z-score 1.1 (Bcl-xL; [2]) | z-score 1.2 (Bcl-xL; [2]) | z-score 2.1 (Bcl-xL; [2]) | z-score 2.2 (Bcl-xL; [2]) | Substance
-0.01422 | -0.04633 | -0.5606 | -0.592 | -0.6263 | -0.8736 | -1.0005 |  |  |  |  | CYP2A6 (MPYMEAVIHEIQRFGDVIPMSLARRV)
5.589 | 0.08513 | 1.44 | 1.097 | 0.1736 | 1.579 | 0.3173 |  |  |  |  | DHX30 (PVESSWIAPELRLQSDDILPLGKDSG)
4.341 | 0.09731 | 0.3964 | 0.9401 | 0.1193 | -0.01021 | -0.07055 |  |  |  |  | DPF3 (SCMATVIHNPLKALGDQFYKEAIEHC)
-1.115 | 0.4795 | -0.01103 | -0.4978 | -0.5012 | 0.1019 | 0.2829 |  |  |  |  | DSN1 (RAKASSLSEELKHFADGLETDGTLQK)
0.7197 | 0.5899 | 1.027 | -0.02772 | 0.5092 | 0.307 | 0.2898 |  |  |  |  | DZIP3 (NGGLLEFHKSLQEIGDKNDHWFDIDP)
0.7648 | -1.829 |  | -0.5885 | -0.5001 | 0.001659 | -1.314 |  |  |  |  | EXOC4 (MQTLSELAKSFQDMADRCLLVLHLEV)
-1.0584 | -0.5034 | 0.7016 | 0.6909 | 0.7662 | 0.7867 |  |  |  |  |  | FADD (APGEEDLCAAFNVICDNVGKDWRRLA)
-0.4003 | -1.2734 | 2.098 | 0.0146 | -0.6557 | -0.4574 | -0.175 |  |  |  |  | FBXL3 (CHGLRELALNYHLLSDELLLALSSEK)
4.354 | -0.599 | 1.203 | 1.501 | 0.03188 |  | -0.4966 |  |  |  |  | FOXI1 (PDKRLTLSQIYQYVADNFPFYNKSKA)
-1.728 | -2.609 | 2.234 | -0.644 | -0.4768 | -0.1664 | -0.7985 |  |  |  |  | FUT8 (KKLKNLEGNELQRHADEFLLDLGHHE)
0.2217 | -0.6971 | -0.4961 | -0.5692 | 0.7158 | -0.81 | -1.083 |  |  |  |  | GBP6 (NDDTPWIARTLDNLADELTAILSAPA)
-0.9348 | -0.7792 | -0.04647 | -0.8049 | -0.6103 | -1.0129 | -1.44 |  |  |  |  | HEXDC (VLELHPGAQRLHIGCDEVYYLGEGEA)
8.932 | -0.8907 | 0.7008 | 0.6709 | 1.584 | 1.802 | 1.866 |  |  |  |  | IPO5 (SEIMHSFAKCIEVMGDGCLNNEHFEE)
 |  |  | 0.4271 and 0.3646 |  | 1.04 and 0.6675 | 0.5198 and 0.4144 |  |  |  |  | ISOC1 (AGYELLIQKFLSLYGDQIDMHRKFVV)
0.3413 | 1.938 | 0.8331 |  | 0.1627 |  | 0.6441 |  |  |  |  | MAPT
1.001 | -1.268 | 4.4 | 3.656 | 0.3257 | 2.02 | 1.79 |  |  |  |  | NOL8 (KYDPSKYCHNLKKIGEDFSNTIPISS)
-0.79 | -2.494 | 0.3656 | 0.03743 | 1.162 | 0.005652 | 1.343 |  |  |  |  | NRN1L (DTIYQGFAECLIRLGDSMGRGGELET)

z-score 1.1 (Bcl-xL; [1]) | z-score 1.2 (Bcl-xL; [1]) | z-score 2.1 (Bcl-xL; [1]) | z-score 2.2 (Bcl-xL; [1]) | z-score 1.2 (Mcl-1) | z-score 2.1 (Mcl-1) | z-score 2.2 (Mcl-1) | z-score 1.1 (Bcl-xL; [2]) | z-score 1.2 (Bcl-xL; [2]) | z-score 2.1 (Bcl-xL; [2]) | z-score 2.2 (Bcl-xL; [2]) | Substance
0.2486 | -0.6775 | 0.2039 | -0.7989 | -0.04596 | -0.1664 | -0.3437 |  |  |  |  | P2RX7 (QCPIFRLGDIFRETGDNFSDVAIQGG)
-0.7258 | 0.8817 | 0.72 | 1.005 | -1.056 | 0.4915 | -0.3857 |  |  |  |  | PCNXL2 (LLDFFMVSILFSKLGDLLHKLQFVLT)
-0.3811 | 0.4308 | -0.2564 | -0.4829 | 0.1831 | -0.6136 | -0.9152 |  |  |  |  | PPAT (RLRQLGVAKKFGVLSDNFKGKRIVLV)
-0.9043 | 0.9292 | 0.4444 | 1.668 | 0.7633 | 0.7051 | 0.9311 |  |  |  |  | PRCP (DDMFEPHSWNLKELSDDCFQQWGVRP)
-0.3595 | -2.173 | -0.3545 | -0.635 | -0.5708 | -0.006199 | -0.3116 |  |  |  |  | PRDX4 (LDFTFVCPTEIIAFGDRLEEFRSINT)
 |  |  |  | 0.6899 | 3.751 | 3.546 | 6.764 | -0.4537 | 1.665 | 5.133 | PRKD3 (IQENVDISTVYQIFADEVLGSGQFGI)
5.112 |  | 2.327 | 1.895 | 0.3355 | 1.744 | 0.6936 |  |  |  |  | RBL1 (WTLFVYTKGNFRMIGDDLVNSYHLLL)
-0.1237 | 0.7519 | 2.286 | 3.519 | 0.2603 |  | -0.3716 |  |  |  |  | RNF160 (WLKGDILGEKLVNLADCLCNEDLESR)
1.122 | 0.5458 | 0.3748 | 0.07051 | 1.007 | 0.04852 | -0.477 |  |  |  |  | SGCA (LFWTPLLVVLLAGLGDTEAQQTTLHP)
0.6815 |  | 3.9688 | 2.046 | 0.6268 | -0.03415 | -0.3116 |  |  |  |  | SIPA1 (TAGLRPGARLLRVCGQTLPSLRPEAA)
-0.2083 | 2.876 | -0.2736 | 2.724 | -0.1967 | -0.5316 | -0.9514 |  |  |  |  | SMPD2 (PYLSKHRADRMRRLGDFLNQESFDLA)
-2.105 | -2.491 | -0.2948 | 0.7075 | 0.4828 | -0.9757 | -1.0129 |  |  |  |  | STK11IP (DSLLWKLAGLLRESGDVVLSGCSTLS)
3.909 | -0.1665 | 0.7598 | -0.2 | -0.7174 | 0.2302 | -0.2533 |  |  |  |  | TAP1 (MSILTIASAVLEFVGDGIYNNTMGHV)
-0.516 | -0.4557 | 0.7398 | 0.3954 | 0.404 | 2.487 | 1.818 |  |  |  |  | TMEM184C (SDIRDDISEQVRHVGRTVRGHPRKKL)
0.1125 | -0.2947 | -0.2028 | 0.228 | -0.396 |  | -0.9391 |  |  |  |  | TMEM214 (SFLSAHCASHLAWFGDSLTSLSQRLQ)
0.5842 | 0.512 | 0.1189 | 0.4568 | -0.2499 | -0.5416 | -0.2181 |  |  |  |  | TTC31 (DLSSTFVSLALRKVGDWPLSARREKG)

From article PMC4072508, “Genome-Wide Prediction and Validation of Peptides That Bind Human Prosurvival Bcl-2 Proteins” (PLoS Computational Biology, 2014)
